# Results: patent publication US20060194321A1, “Directed differentiation of embryonic stem cells and uses thereof” (priority 2005, published 2006)
# “Also recorded” adds a separate entry of the source.
# B1: Beta-cellulin: late factor growth factor, 50 ng/ml (protein, UniProt P35070 32-111, looked up)
# Betacellulin: DGNSTRSPETNGLLCGDPEENCAATTTQSKRKGHFSRCPKQYKHYCIKGRCRFVVAEQTPSCVCDEGYIGARCERVDLFY
# B2: Activin A: early factor, TGF-β related growth factor, 50 ng/ml (protein, UniProt P08476 311-426, looked up)
# Inhibin beta A chain: GLECDGKVNICCKKQFFVSFKDIGWNDWIIAPSGYHANYCEGECPSHIAGTSGSSLSFHSTVINHYRMRGHSPFANLKSCCVPTKLRPMSMLYYDDGQNIIKKDIQNMIVEECGCS
# modifications: Inhibin beta A chain
# notes: early factor, TGF-β related growth factor, 50 ng/ml
# B3: BMP4: early factor, growth factor, 50 ng/ml (protein, UniProt P12644 293-408, looked up)
# Bone morphogenetic protein 4: SPKHHSQRARKKNKNCRRHSLYVDFSDVGWNDWIVAPPGYQAFYCHGDCPFPLADHLNSTNHAIVQTLVNSVNSSIPKACCVPTELSAISMLYLDEYDKVVLKNYQEMVVEGCGCR
# B4: Nodal: TGF-β-related ligand, evolutionarily conserved endoderm inducer; recombinant protein (protein, UniProt Q96S42 238-347, looked up)
# Nodal homolog: HHLPDRSQLCRKVKFQVDFNLIGWGSWIIYPKQYNAYRCEGECPNPVGEEFHPTNHAYIQSLLKRYQPHRVPSTCCAPVKTKPLSMLYVDNGRVLLDHHKDMIVEECGCL
# Tested on: Human embryonic stem cell 3 (hES3)
# Assay: pdx-1 expression by quantitative RT-PCR in embryoid bodies in 3D […] (initiation protocol)
# Format: cell-based
# Details: factor included in or omitted from the early/late factor cocktail, day 20
# Experimental: Human embryonic stem cell 3 (hES3) were subjected to a multi-step differentiation protocol, as outlined in FIG. 2. The embryonic stem cells were cultured as embryoid bodies suspended in 3D in […]™. The cells were cultured for 10 days in medium containing the early factors and then for 10 days in medium containing the late factors. Following culture, cells were assayed for expression of pdx-1.
# To establish a baseline for comparison, human embryonic stem cells were differentiated, as described above, in 3-dimensional culture in […]™ for 20 days. […] RNA was isolated and analyzed for pdx-1 and actin expression by RT-PCR. Data were standardized in comparison to actin expression, and the results are expressed as absolute g pdx-1/kg Actin expression+/−SD.
# We evaluated individual early and late factors. […] This revised protocol differs from the initial 20-day protocol only in the nature of the early and late factors used. This 2 EF-3 LF protocol included the early factors Activin A (50 ng/ml) and BMP-4 (50 ng/ml). The cells were cultured in the early factors as previously described from day 0 to day 10. The 2 EF-3 LF protocol included the late factors HGF (50 ng/ml), exendin-4 (10 ng/ml), and β-cellulin (50 ng/ml).
# RNA isolation, cDNA synthesis, and quantitative PCR: Total RNA from hESC or EBs at various stages of differentiation was isolated using the Qiagen RNeasy kit or prepared using Trizol reagent (Invitrogen) according to the manufacturer's instructions. RNA was and quantified by UV absorption. 1 to 5 μg of RNA was DNase I treated and converted to cDNA using M-MuLV reverse transcriptase (New England Biolabs) using oligo-dT or random hexamer primers according to the manufacturer's instructions. Quantitative PCR was performed according to the manufacturer's instructions using a BioRad iCycler with approximately 50 ng cDNA per reaction containing 250 nM of each primer and 1×SYBR green master mix (Bio-Rad) and analyzed by Bio-RAD thermocycler.
# Standard curves were generated by plotting the log (concentration in fg) of series of 100-fold dilutions of the target PCR amplicon (a range of 10^4 fg to 1 fg per reaction) versus the corresponding threshold Ct value. Normalized expression was determined by the following equation: Normalized expression=(input of target gene/input of actin control), where input is calculated as the inverse log of ((the threshold cycle (Ct value)—Y-intercept of standard curve)/slope of standard curve).
molecule,measurement,setting,value
B1,contribution of the factor to induction of pdx-1 expression,,important component
same,contribution of the factor to induction of pdx-1 expression,listed as betacellulin,optional
B2,contribution of the factor to induction of pdx-1 expression,,important components
B3,contribution of the factor to induction of pdx-1 expression,,important components
B4,contribution of the factor to induction of pdx-1 expression,,little effect; also recorded: does not significantly improve
same,contribution of the factor to induction of pdx-1 expression,listed as nodal,optional
